From the supplement of paper PMC12338614
± gives the uncertainty stated by the source.

B1: library; numbered along this chain (parent)
chain: MEVVDPQQLGMFTEGELMSVGMDTFIHRIDSTEVIYQPRRKRAKLIGKYLMGDLLGEGSYGKVKEVLDSETLCRRAVKILKKKKLRRIPNGEANVKKEIQLLRRLRHKNVIQLVDVLYNEEKQKMYMVMEYCVCGMQEMLDSVPEKRFPVCQAHGYFCQLIDGLEYLHSQGIVHKDIKPGNLLLTTGGTLKISDLGVAEALHPFAADDTCRTSQGSPAFQPPEIANGLDTFSGFKVDIWSAGVTLYNITTGLYPFEGDNIYKLFENIGKGSYAIPGDCGPPLSDLLKGMLEYEPAKRFSIRQIRQHSWFRKKHPPAEAPVPIPPSPDTKDRWRSMTVVPYLEDLHGADEDEDLFDIEDDIIYTQDFTVPGQVPEEEASHNGQRRGLPKAVCMNGTEAAQLSTKSRAEGRAPNPARKACSASSKIRRLSACKQQ

Variants of: B1
Assay: STK11 functional score (HeLa growth suppression), rescaled enrichment; synonymous median = 1, nonsense median = 0 (normalised score)
Settings: with HeLa; variant type: missense
Outline: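 Codon-randomised (POPCode) libraries of codon-optimised STK11 were integrated by Bxb1 at an AAVS1 landing pad in HeLa, in three regions each transfected three times. Integrants (BFP-negative, mCherry-positive) were FACS-sorted 4–5 days after electroporation and grown about two weeks; tiled gDNA amplicons were sequenced on NextSeq (~2 million reads per tile). The functional score is the wild-type-corrected post/pre-selection log ratio, rescaled to synonymous and nonsense medians, merged over codons and replicate transfections, with bootstrapped error.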

Variant | STK11 functional score
A398T | 1.3 ± 0.21
E145V | 0.644 ± 0.079
E145D | 1.11 ± 0.28
E145N | 1.46 ± 0.49
Y261C | 0.999 ± 0.41
M127A | 1.5 ± 0.31
M127G | 0.516 ± 0.14
C418D | 1.57 ± 0.34
C418G | 1.61 ± 0.24
C418H | 1.17 ± 0.18
S334R | 0.671 ± 0.28
G215Y | 1.08 ± 0.31
G215C | 1.06 ± 0.2
R301I | 1.65 ± 0.25
I29H | 0.0412 ± 0.14
D258A | 1.33 ± 0.76
D258M | 0.663 ± 0.18
D258G | 1.47 ± 0.15
D258L | 0.539 ± 0.12
Y49Q | 0.0367 ± 0.35
A417G | 1.47 ± 0.26
A417T | 1.55 ± 0.17
D229A | 0.987 ± 0.31
E138M | 1.27 ± 0.18

Variant | STK11 functional score
E293Q | 1.23 ± 0.55
T395A | 0.877 ± 0.44
T395L | 1.23 ± 0.19
C430W | 1.02 ± 0.59
T186S | 1.1 ± 0.12
V116C | 0.415 ± 0.14
P369R | 1.44 ± 0.18
P369A | 1.43 ± 0.18
P369F | 1.26 ± 0.39
V110N | 0.651 ± 0.79
E165L | 0.448 ± 0.22
I424M | 1.42 ± 0.38
G408T | 1.61 ± 0.15
E130P | 0.365 ± 0.27
E130Q | 0.94 ± 0.3
E92L | 1.01 ± 0.15
D277R | 1.34 ± 0.57
L182H | -0.198 ± 0.33
P387L | 1.02 ± 0.3
K97P | 1.1 ± 0.4
K97W | 0.46 ± 0.082
R103Y | 1.15 ± 0.18
R103A | 1.42 ± 0.15
M51W | 0.189 ± 0.32

Variant | STK11 functional score
P373S | 1.44 ± 0.32
P373R | 0.782 ± 0.29
E65I | 0.756 ± 0.38
R415V | 1.57 ± 0.28
Q214M | 1.66 ± 0.2
Q214S | 0.787 ± 0.1
A43M | 1.57 ± 0.33
A43I | 1.18 ± 0.48
V173Q | 1.46 ± 0.14
I35D | 1.67 ± 0.17
I35L | 1.11 ± 0.1
S428I | 1.62 ± 0.22
L105I | 1.57 ± 0.36
N94T | 1.27 ± 0.18
P203H | 0.686 ± 0.62
D115E | 1.27 ± 0.32
D115V | 1.27 ± 0.1
Q382V | 1.12 ± 0.25
Q382D | 1.47 ± 0.29
Y118N | 0.286 ± 0.15
K269F | 0.789 ± 0.12
K269C | 1.09 ± 0.35
K269N | 1.23 ± 0.35
V3L | 0.558 ± 0.13

Variant | STK11 functional score
G268T | 1.52 ± 0.16
L245C | 0.21 ± 0.093
L140K | 1.06 ± 0.089
L140S | -0.236 ± 0.08
L140A | 0.543 ± 0.27
V34D | 0.585 ± 0.37
Y126W | 0.105 ± 0.079
G276I | 0.493 ± 0.26
T402A | 1.42 ± 0.28
P222V | 0.826 ± 0.12
Y292L | 0.546 ± 0.15
Q37N | 0.934 ± 0.53
I161H | -0.2 ± 0.12
D330N | 1.44 ± 0.48
Y272M | 1.63 ± 0.14
P144N | 1.53 ± 0.23
P144Q | 1.25 ± 0.34
T363E | 1.6 ± 0.22
T363L | 1.17 ± 0.15
I99L | 0.855 ± 0.1
L72Y | 1.04 ± 0.11
S142H | 1.44 ± 0.24
V66T | 1.12 ± 0.32
L117V | 0.689 ± 0.083

Variant | STK11 functional score
L102Q | 1.48 ± 0.65
L102V | 0.912 ± 0.083
C210G | 1.03 ± 0.12
C210E | 0.0554 ± 0.2
T212E | 1.65 ± 0.34
G381P | 1.61 ± 0.28
G381T | 1.6 ± 0.27
P6D | 1.66 ± 0.16
E375C | 1.31 ± 0.31
H313A | 1.33 ± 0.14
I361Q | 0.616 ± 0.2
I361F | 0.984 ± 0.13
D365R | 1.61 ± 0.14
R333L | 1.32 ± 0.35
L195E | 1.59 ± 0.18
L427E | 1.53 ± 0.25
L427R | 1.56 ± 0.2
P314V | 1.16 ± 0.37
P314N | 1.53 ± 0.13
L290V | 0.625 ± 0.089
S216W | -0.0568 ± 0.11
E376D | 0.267 ± 0.78
E376K | 1.41 ± 0.61
E376L | 1.42 ± 0.28

Variant | STK11 functional score
H107A | 0.964 ± 0.11
H107F | 0.159 ± 0.075
V20L | 0.787 ± 0.15
V20H | 1.44 ± 0.17
S283W | 0.819 ± 0.087
S283C | 0.98 ± 0.14
I260R | 1.66 ± 0.16
R42W | 1.68 ± 0.52
R409F | 0.845 ± 0.4
R409C | 1.28 ± 0.46
M335E | 1.33 ± 0.16
P339W | 1.6 ± 0.17
P339I | 1.52 ± 0.15
T367L | 1.46 ± 0.18
G257Y | 1.57 ± 0.13
K78V | -0.0951 ± 0.078
K78W | -0.148 ± 0.077
G242N | -0.133 ± 0.22
G242E | 0.274 ± 0.12
Q100R | 1.34 ± 0.13
I111P | 1.25 ± 0.36
A93R | 1.6 ± 0.19
C158V | 0.897 ± 0.2
A406P | 1.21 ± 0.54

Variant | STK11 functional score
V337A | 1.24 ± 0.17
V337G | 1.13 ± 0.34
A410L | 1.42 ± 0.2
Q399N | 1.39 ± 0.35
Q399T | 1.29 ± 0.25
L282G | 0.43 ± 0.11
C73L | 1.19 ± 0.13
C73E | 1.7 ± 0.41
N247H | 1.26 ± 0.26
E342L | 1.26 ± 0.25
E342W | 1.19 ± 0.28
E120F | 1.52 ± 0.4
I177S | -0.0448 ± 0.12
I177W | -0.249 ± 0.086
Q159A | 1.13 ± 0.21
Q159S | 0.691 ± 0.22
P319S | 1.4 ± 0.28
P413N | 1.6 ± 0.11
P413T | 1.44 ± 0.24
P413Y | 1.47 ± 0.26
P413L | 1.31 ± 0.13
P280I | 1.36 ± 0.34
L263T | 1.22 ± 0.17
